# Measurements taken from the supplement of paper PMC7125110.
# ± gives the standard error. Variants at the floor of the assay were thinned out.
# B1: glmS ribozyme (parent)
# chain: AUAAAAGCGCCAGAACUACAGAAAUGUAGUUGACGAGGAGGAGGUUUAUCGAAUUUUCGGCGGAUGCCUCCAAA
# Columns and labels:
# Conditions in all cases: with glucosamine-6-phosphate
# glucosamine-6-phosphate [1] = variants of: B1; assay: self-cleavage kobs at 40 uM GlcN6P; higher = faster cleavage; RNA array
# Method in brief: (§1)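 kobs was derived by fitting per-tile medians to one- or two-exponential decays after normalising signals to baseline and to non-cleaving reference variants. Those signals came from barcoded ribozyme variants transcribed in situ by E. coli RNA polymerase on sequenced MiSeq chips, followed through a hybridised Cy3 probe at 37 °C and imaged over ~14 h. Glucosamine-6-phosphate (40 μM to 10 mM) in HEPES/KCl/Mg(OAc)2 buffer was flowed in. Weighted Michaelis–Menten fits across concentrations then gave kcat and KM.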
# glucosamine-6-phosphate [2] = variants of: B1; assay: self-cleavage kobs at 10000 uM GlcN6P; higher = faster cleavage; RNA array
# Method in brief: as §1
# glucosamine-6-phosphate [3] = variants of: B1; assay: self-cleavage kobs at 640 uM GlcN6P; higher = faster cleavage; RNA array
# Method in brief: as §1
# glucosamine-6-phosphate [4] = variants of: B1; assay: self-cleavage kobs at 160 uM GlcN6P; higher = faster cleavage; RNA array
# Method in brief: as §1
# glucosamine-6-phosphate [5] = variants of: B1; assay: self-cleavage kobs at 2500 uM GlcN6P; higher = faster cleavage; RNA array
# Method in brief: as §1
Variant,self-cleavage kobs at 40 uM GlcN6P (glucosamine-6-phosphate [1]) [s⁻¹],self-cleavage kobs at 10000 uM GlcN6P (glucosamine-6-phosphate [2]) [s⁻¹],self-cleavage kobs at 640 uM GlcN6P (glucosamine-6-phosphate [3]) [s⁻¹],self-cleavage kobs at 160 uM GlcN6P (glucosamine-6-phosphate [4]) [s⁻¹],self-cleavage kobs at 2500 uM GlcN6P (glucosamine-6-phosphate [5]) [s⁻¹]
G40U G51U G62A C68U,< 1e-05,< 1e-05,,,
G13C C50G G63A C70G,0.000201 ± 7.2e-05,0.000144 ± 4.2e-05,,,
A39C G62A,< 1e-05,< 1e-05,< 1e-05,,
G37U A39U U45G G51A G59A,< 1e-05,,,,
C16A U47C C50G G66A C67U U69G,7.74e-05 ± 2.6e-05,4.24e-05 ± 1.6e-05,,,
A36C U65C,< 1e-05,< 1e-05,,< 1e-05,< 1e-05
A48C C61A,< 1e-05,< 1e-05,< 1e-05,,
C34G A42G,< 1e-05,< 1e-05,< 1e-05,,< 1e-05
G9A G41U U56G,< 1e-05,< 1e-05,< 1e-05,< 1e-05,
A42G U45A U49C,< 1e-05,,,,
A15G G37A A39C C61U U69G,< 1e-05,,,,
C8G C34A A53C G60C,< 1e-05,,< 1e-05,< 1e-05,< 1e-05
G35A U57G,< 1e-05,,,,
G13U A52C,< 1e-05,< 1e-05,,,< 1e-05
U31C G38C A39C,< 1e-05,,,,< 1e-05
C11U A15C G62C,< 1e-05,< 1e-05,,,
G7U G37C C61A C68G C70U,0.000181 ± 5.8e-05,9.36e-05 ± 2.7e-05,,,
C10U C34A C50G U65A,8.28e-05 ± 3e-05,0.000129 ± 2.8e-05,,,6.81e-05 ± 2.9e-05
A15C A33U,< 1e-05,,,< 1e-05,
A6C U49G C67U,< 1e-05,,,,< 1e-05
G29C G62A,< 1e-05,,< 1e-05,,
G7C U31A,< 1e-05,< 1e-05,< 1e-05,,< 1e-05
A6G C16G G29C A39G G43C U47G G51U C61A,< 1e-05,< 1e-05,,,

Variant,self-cleavage kobs at 40 uM GlcN6P (glucosamine-6-phosphate [1]) [s⁻¹],self-cleavage kobs at 10000 uM GlcN6P (glucosamine-6-phosphate [2]) [s⁻¹],self-cleavage kobs at 640 uM GlcN6P (glucosamine-6-phosphate [3]) [s⁻¹],self-cleavage kobs at 160 uM GlcN6P (glucosamine-6-phosphate [4]) [s⁻¹],self-cleavage kobs at 2500 uM GlcN6P (glucosamine-6-phosphate [5]) [s⁻¹]
U30A G60U,< 1e-05,< 1e-05,< 1e-05,< 1e-05,
C8G U30A U31C,< 1e-05,< 1e-05,,,
C16A U55A G63U,< 1e-05,,,,
G13C U31C C71U,4.32e-05 ± 2e-05,0.00114 ± 0.00023,,,
A14U C16U,0.00025 ± 3.2e-05,0.00789 ± 0.001,0.00297 ± 0.00042,0.000555 ± 0.00011,0.00183 ± 0.0004
A6C G7C C11G U55G,< 1e-05,< 1e-05,,,
G35U G59C,< 1e-05,< 1e-05,< 1e-05,< 1e-05,< 1e-05
U47A A53C,0.000173 ± 2.9e-05,0.00663 ± 0.0016,0.00103 ± 0.00018,0.000506 ± 7.8e-05,0.00465 ± 0.001
A6G G7U,< 1e-05,< 1e-05,,< 1e-05,< 1e-05
C50U C61G G63U,< 1e-05,,,,
C8U G51A A52G G63C,< 1e-05,,,,
G35A U45A C61A G62C,< 1e-05,,,,
A52G U65A U69G C70U,5.09e-05 ± 1.9e-05,3.34e-05 ± 1.4e-05,,,
A36G A64U U65G,< 1e-05,< 1e-05,< 1e-05,,< 1e-05
C10U A12G G43U,< 1e-05,< 1e-05,< 1e-05,,< 1e-05
C34G G41C,< 1e-05,< 1e-05,,< 1e-05,< 1e-05
A15U C68A C71A,< 1e-05,,,,
U49C C50A,< 1e-05,,,< 1e-05,
G41U C61G,< 1e-05,< 1e-05,< 1e-05,< 1e-05,< 1e-05
G9A G44A C67A,< 1e-05,,,,
A15G G32C G41A G60A C71U,< 1e-05,,,,
G37U G60C,< 1e-05,,< 1e-05,< 1e-05,
U30C G51C,< 1e-05,< 1e-05,,,

Variant,self-cleavage kobs at 40 uM GlcN6P (glucosamine-6-phosphate [1]) [s⁻¹],self-cleavage kobs at 10000 uM GlcN6P (glucosamine-6-phosphate [2]) [s⁻¹],self-cleavage kobs at 640 uM GlcN6P (glucosamine-6-phosphate [3]) [s⁻¹],self-cleavage kobs at 160 uM GlcN6P (glucosamine-6-phosphate [4]) [s⁻¹],self-cleavage kobs at 2500 uM GlcN6P (glucosamine-6-phosphate [5]) [s⁻¹]
G7U U49A A52C G60C C61U,< 1e-05,< 1e-05,< 1e-05,,< 1e-05
C10U C50G U57G,0.000105 ± 2.4e-05,4.71e-05 ± 1.6e-05,,,
A39G G63U G66A,< 1e-05,< 1e-05,< 1e-05,,< 1e-05
A33G A64C,< 1e-05,< 1e-05,< 1e-05,< 1e-05,< 1e-05
C10A A36G G40C U47G,< 1e-05,,,,
A12U A42G U47A C68U,0.000117 ± 4.6e-05,0.00634 ± 0.0021,,,
G13C U30C A36G G41C C70A,< 1e-05,< 1e-05,< 1e-05,< 1e-05,< 1e-05
C10U C11A,< 1e-05,,,< 1e-05,
C10A A33C,< 1e-05,< 1e-05,< 1e-05,< 1e-05,< 1e-05
C8A A64U,< 1e-05,< 1e-05,< 1e-05,< 1e-05,< 1e-05
C8U U65G,< 1e-05,< 1e-05,< 1e-05,< 1e-05,< 1e-05
A14U G41U C68A C70U,< 1e-05,,,,
G29U A36C A39C,< 1e-05,< 1e-05,,,
U54G U56G G63A C67U,< 1e-05,< 1e-05,,,
C10U A15G C67G,< 1e-05,,6.46e-05 ± 2.3e-05,,
G43A C58A,< 1e-05,< 1e-05,< 1e-05,< 1e-05,< 1e-05
U46G G66C,0.000227 ± 3.8e-05,,0.00135 ± 0.00038,0.000418 ± 0.00013,0.00594 ± 0.0017
G29U C71U,0.000132 ± 1.2e-05,0.00363 ± 0.00043,0.000578 ± 0.0001,0.000298 ± 2.9e-05,0.00226 ± 0.00052
C10U A42U,< 1e-05,< 1e-05,< 1e-05,< 1e-05,< 1e-05
G40C A42C,< 1e-05,< 1e-05,< 1e-05,< 1e-05,< 1e-05
A12C A64U C68G,< 1e-05,,,,
C8U A39C G41A A42C C58G A64G G66A,< 1e-05,< 1e-05,,,
C10A G60A,< 1e-05,,< 1e-05,< 1e-05,< 1e-05

Variant,self-cleavage kobs at 40 uM GlcN6P (glucosamine-6-phosphate [1]) [s⁻¹],self-cleavage kobs at 10000 uM GlcN6P (glucosamine-6-phosphate [2]) [s⁻¹],self-cleavage kobs at 640 uM GlcN6P (glucosamine-6-phosphate [3]) [s⁻¹],self-cleavage kobs at 160 uM GlcN6P (glucosamine-6-phosphate [4]) [s⁻¹],self-cleavage kobs at 2500 uM GlcN6P (glucosamine-6-phosphate [5]) [s⁻¹]
A36C U69G,4.49e-05 ± 1.6e-05,3.45e-05 ± 1e-05,0.000391 ± 9.8e-05,0.000114 ± 3.7e-05,0.0001 ± 2e-05
A36G C58U C70U,< 1e-05,,< 1e-05,< 1e-05,
G38A A48U,< 1e-05,< 1e-05,< 1e-05,,
A6U C50A,< 1e-05,,< 1e-05,< 1e-05,
U49C G66A,< 1e-05,< 1e-05,,,
U56C U69C C70A,< 1e-05,< 1e-05,< 1e-05,< 1e-05,< 1e-05
A33C C50G C71U,0.000772 ± 0.00027,5.96e-05 ± 2.9e-05,0.000204 ± 5.8e-05,,0.000589 ± 0.00017
A6U A14U G35C A39U U55A C58A,< 1e-05,< 1e-05,,,< 1e-05
C10U G43C C50U C70U,< 1e-05,< 1e-05,,,< 1e-05
C11G G35C C70G,8.82e-05 ± 4e-05,,,,
A33C G44C U57A A64U,< 1e-05,< 1e-05,< 1e-05,< 1e-05,< 1e-05
G40U G59C G60U C70G,< 1e-05,< 1e-05,,,
G38C G41A,< 1e-05,< 1e-05,< 1e-05,< 1e-05,< 1e-05
C16U G37A,7.36e-05 ± 1.1e-05,0.00262 ± 0.00044,0.000713 ± 7.9e-05,0.000108 ± 1.3e-05,0.00123 ± 0.00015
G32A G44U,< 1e-05,,< 1e-05,,
A15U G51U C71A,< 1e-05,< 1e-05,,,
C34U G59A,< 1e-05,,< 1e-05,,< 1e-05
G9A C10U A14U U31C G40C C70A,< 1e-05,< 1e-05,,,
U56A C70U,0.000377 ± 3.2e-05,0.0156 ± 0.0024,0.002 ± 0.00026,0.000852 ± 0.00013,0.0104 ± 0.0022
A12C G32A G44C,< 1e-05,,,,< 1e-05
C8U A64U,< 1e-05,< 1e-05,< 1e-05,< 1e-05,< 1e-05
